The values that follow come from patent publication US20230151068A1.

The target in the experiment is biotinylated His-Avi-TEAD (194-411) (UniProt P28347). Briefly: SSM screen, enrichment after two rounds of sorting.
With GSPDEQIERAKECCKKGDIQCCLRYFEESGDPNVMLICLFCP (designed binder) [Y04Q variant of SEQ ID NO: 1], the enrichment score was 0.29.
The result for GSPDEYIERSKECCKKGDIQCCLRYFEESGDPNVMLICLFCP (designed binder) [A08S variant of SEQ ID NO: 1] reads -2.79; that for GSPSEYIERAKECCKKGDIQCCLRYFEESGDPNVMLICLFCP (designed binder) [D02S variant of SEQ ID NO: 1], -1.01; that for GSPDEYQERAKECCKKGDIQCCLRYFEESGDPNVMLICLFCP (designed binder) [I05Q variant of SEQ ID NO: 1], -1.23.
Next, GSPDEYIERASECCKKGDIQCCLRYFEESGDPNVMLICLFCP (designed binder) [K09S variant of SEQ ID NO: 1]: -0.91; GSPDETIERAKECCKKGDIQCCLRYFEESGDPNVMLICLFCP (designed binder) [Y04T variant of SEQ ID NO: 1]: -0.87; GSPDSYIERAKECCKKGDIQCCLRYFEESGDPNVMLICLFCP (designed binder) [E03S variant of SEQ ID NO: 1]: -0.41.
Next, GSPDEYIERAKQCCKKGDIQCCLRYFEESGDPNVMLICLFCP (designed binder) [E10Q variant of SEQ ID NO: 1]: -1.94; GSPDEYIERAQECCKKGDIQCCLRYFEESGDPNVMLICLFCP (designed binder) [K09Q variant of SEQ ID NO: 1]: 1.1.
As for GSPDEYIERAKSCCKKGDIQCCLRYFEESGDPNVMLICLFCP (designed binder) [E10S variant of SEQ ID NO: 1], the enrichment score is -2.47.
Next, GSPDTYIERAKECCKKGDIQCCLRYFEESGDPNVMLICLFCP (designed binder) [E03T variant of SEQ ID NO: 1]: 1.19; GSPDESIERAKECCKKGDIQCCLRYFEESGDPNVMLICLFCP (designed binder) [Y04S variant of SEQ ID NO: 1]: -0.74; GSPDEYIESAKECCKKGDIQCCLRYFEESGDPNVMLICLFCP (designed binder) [R07S variant of SEQ ID NO: 1]: 0.31.
As to GSPDEYIEQAKECCKKGDIQCCLRYFEESGDPNVMLICLFCP (designed binder) [R07Q variant of SEQ ID NO: 1], the enrichment score is -0.48.
Next, GSPDEYSERAKECCKKGDIQCCLRYFEESGDPNVMLICLFCP (designed binder) [I05S variant of SEQ ID NO: 1]: -2.04; GSPDEYIQRAKECCKKGDIQCCLRYFEESGDPNVMLICLFCP (designed binder) [E06Q variant of SEQ ID NO: 1]: -2.41; GSPDEYIERQKECCKKGDIQCCLRYFEESGDPNVMLICLFCP (designed binder) [A08Q variant of SEQ ID NO: 1]: -6.
The result for GSTDEYIERAKECCKKGDIQCCLRYFEESGDPNVMLICLFCP (designed binder) [P01T variant of SEQ ID NO: 1] reads -0.57; that for GSSDEYIERAKECCKKGDIQCCLRYFEESGDPNVMLICLFCP (designed binder) [P01S variant of SEQ ID NO: 1], 0.13.
Next, GSPTEYIERAKECCKKGDIQCCLRYFEESGDPNVMLICLFCP (designed binder) [D02T variant of SEQ ID NO: 1]: -0.52; GSPDEYISRAKECCKKGDIQCCLRYFEESGDPNVMLICLFCP (designed binder) [E06S variant of SEQ ID NO: 1]: -1.09.
